Key:
[1] = tested on: mLeptin promoter; test: NHR-promoter luciferase screen, mLeptin promoter; assay type: cell-based, mouse; details: for Luc. act., normalized to lacZ / Normalized Luc. act., normalized to control: Table 7, mLeptin; for Results of assays of transcription factor (+/- ligand) with mLeptin: Table 6d, luciferase activity relative to control (control = 1.00)
Description: (§1) The use, feasibility, and reproducibility of the functional NHR-promoter screen in a 48-well format have been tested validated. Briefly, there were co-expressed 50 ng of each NHR/NHR homodimer or NHR/RXR heterodimer with 100 ng promoter/luciferase construct and 50 ng of LacZ (as a control for transfection efficiency) in CV-1 cells using Fugene HD (Roche) as a transfection reagent (alternatively or additionally, a CMV-YFP construct can be used as a transfection control). Each of the nuclear hormone receptors that were used in these experiments was cloned into a pcDNA3.1 vector and comprised a C-terminally linked V5H6 tag. Twenty-four hours after transfection, appropriate ligands were added, where applicable, (see Table 5 for various ligands and concentrations and after 48 hrs, samples were assayed for luciferase and LacZ activity. To measure for luciferase activity 15 ul of sample was added to 30 ul of luciferase buffer (20 mM tricine, 1.07 mM MgCarbonate, 2.67 mM MgSulfate, 0.1 mM Naz-EDTA, 5 mM DTT, 5 mM ATP, 0.15 mg/ml CoA, 0.5 mM Luciferin), mixed briefly, and run in a Perkin Elmer Victor 5 luminometer. Thus, the functional NHR-promoter screen was used to observe the transcriptional activity of 29 promoters from various physiological pathways including inflammation, lipid and sugar metabolism, cholesterol transport, xenobiotic metabolism, and circadian rhythm.
(§2) The promoters that facilitate transcription of the indicated gene products that were tested using the protocols described herein are listed in the first row of the table. The nuclear hormone receptors and, where applicable, ligands that were assayed for their transcriptional effects on the promoters are listed in the first column of the table. The data represent the luciferase activity of each sample normalized to both the lacZ activity of that sample and to a control, e.g., no NHR or ligand, as customary in the art. As described previously, these normalizations allow the transcriptional activity of each reporter cell to be compared to other samples.
(§3) Tables 7-40 show the transcriptional effects of the hormone receptors, and, where applicable, ligands (orphan receptors are screened without ligand), on each individual promoter. […] The control data of each table are shown in their last rows.

[2] = tested on: hIFNg promoter; test: NHR-promoter luciferase screen, hIFNg promoter; assay type: cell-based, human; details: for Luc. act., normalized to lacZ / Normalized Luc. act., normalized to control: IFNg promoter, HR component without or with ligand; for hIFNg promoter reporter activity: transcription factor +/- ligand, control = 1.00
Description: as §1, §2, §3

[3] = tested on: mCAR promoter; test: NHR-promoter luciferase screen, mCAR promoter; assay type: cell-based, mouse; details: for luciferase activity normalized to lacZ activity and to a control, mCAR: mCAR promoter-luciferase, CV-1 cells, NHR +/- ligand, control = 1.00; for Luc. act., normalized to lacZ / Normalized Luc. act., normalized to control: mCAR promoter, HR/ligand component
Description: as §1, §2, §3

[4] = tested on: hCYP3A4 promoter; test: NHR-promoter luciferase screen, hCYP3A4 promoter; assay type: cell-based, human; details: for Luc. act., normalized to lacZ / Normalized Luc. act., normalized to control: CYP3A4 promoter, HR/ligand component; for hCYP3A4 promoter reporter activity: transcription factor +/- ligand, control = 1.00
Description: Briefly, there were co-expressed 50 ng of each NHR/NHR homodimer or NHR/RXR heterodimer with 100 ng promoter/luciferase construct and 50 ng of LacZ (as a control for transfection efficiency) in CV-1 cells using Fugene HD (Roche) as a transfection reagent (alternatively or additionally, a CMV-YFP construct can be used as a transfection control). Each of the nuclear hormone receptors that were used in these experiments was cloned into a pcDNA3.1 vector and comprised a C-terminally linked V5H6 tag.
as §2, §3

[5] = tested on: hPPARg1 promoter; test: NHR-promoter luciferase screen, hPPARg1 promoter; assay type: cell-based, human; details: for Luc. act., normalized to lacZ / Normalized Luc. act., normalized to control: PPARG1 promoter, hormone receptor with or without its ligand; for Normalized Luc. act., normalized to control: relative to control; for Results of assays of transcription factor (+/- ligand) with hPPARg1: Table 6d, luciferase activity relative to control (control = 1.00)
Description: as §1, §2, §3

[6] = tested on: mUCP2 promoter; test: NHR-promoter luciferase screen, mUCP2 promoter; assay type: cell-based, mouse; details: for Luc. act., normalized to lacZ / Normalized Luc. act., normalized to control: mUCP2 promoter reporter, co-transfected HR, with or without its ligand; for Normalized Luc. act., normalized to control: relative to control; for luciferase activity normalized to lacZ activity and to a control, mUCP2: mUCP2 promoter-luciferase, CV-1 cells, NHR +/- ligand, control = 1.00
Description: as §1, §2, §3

Molecule | Luc. act., normalized to lacZ [1] | Normalized Luc. act., normalized to control [1] | Results of assays of transcription factor (+/- ligand) with mLeptin [1] | Luc. act., normalized to lacZ [2] | Normalized Luc. act., normalized to control [2] | hIFNg promoter reporter activity [2] | luciferase activity normalized to lacZ activity and to a control, mCAR [3] | Luc. act., normalized to lacZ [3] | Normalized Luc. act., normalized to control [3] | Luc. act., normalized to lacZ [4] | Normalized Luc. act., normalized to control [4] | hCYP3A4 promoter reporter activity [4] | Luc. act., normalized to lacZ [5] | Normalized Luc. act., normalized to control [5] | Results of assays of transcription factor (+/- ligand) with hPPARg1 [5] | Luc. act., normalized to lacZ [6] | Normalized Luc. act., normalized to control [6] | luciferase activity normalized to lacZ activity and to a control, mUCP2 [6]
RARb: Retinoic acid receptor β (NR1B2), nuclear hormone receptor cDNA driver (protein, UniProt P10826 1-455, looked up) Retinoic acid receptor beta: MTTSGHACPVPAVNGHMTHYPATPYPLLFPPVIGGLSLPPLHGLHGHPPPSGCSTPSPATIETQSTSSEELVPSPPSPLPPPRVYKPCFVCQDKSSGYHYGVSACEGCKGFFRRSIQKNMIYTCHRDKNCVINKVTRNRCQYCRLQKCFEVGMSKESVRNDRNKKKKETSKQECTESYEMTAELDDLTEKIRKAHQETFPSLCQLGKYTTNSSADHRVRLDLGLWDKFSELATKCIIKIVEFAKRLPGFTGLTIADQITLLKAACLDILILRICTRYTPEQDTMTFSDGLTLNRTQMHNAGFGPLTDLVFTFANQLLPLEMDDTETGLLSAICLICGDRQDLEEPTKVDKLQEPLLEALKIYIRKRRPSKPHMFPKILMKITDLRSISAKGAERVITLKMEIPGSMPPLIQEMLENSEGHEPLTPSSSGNTAEHSPSISPSSVENSGVSQSPLVQ | 2.7 | 0.9 | 0.91 | 24.4 | 1.5 | 1.53 | 1.30 | 49.6 | 1.3 | 4.6 | 1.0 | 1.03 | 100.6 | 1.5 | 1.46 | 277.3 | 2.5 | 2.52
RARa: Retinoic acid receptor α (NR1B1), nuclear hormone receptor cDNA driver (protein, UniProt P10276 1-462, looked up) Retinoic acid receptor alpha: MASNSSSCPTPGGGHLNGYPVPPYAFFFPPMLGGLSPPGALTTLQHQLPVSGYSTPSPATIETQSSSSEEIVPSPPSPPPLPRIYKPCFVCQDKSSGYHYGVSACEGCKGFFRRSIQKNMVYTCHRDKNCIINKVTRNRCQYCRLQKCFEVGMSKESVRNDRNKKKKEVPKPECSESYTLTPEVGELIEKVRKAHQETFPALCQLGKYTTNNSSEQRVSLDIDLWDKFSELSTKCIIKTVEFAKQLPGFTTLTIADQITLLKAACLDILILRICTRYTPEQDTMTFSDGLTLNRTQMHNAGFGPLTDLVFAFANQLLPLEMDDAETGLLSAICLICGDRQDLEQPDRVDMLQEPLLEALKVYVRKRRPSRPHMFPKMLMKITDLRSISAKGAERVITLKMEIPGSMPPLIQEMLENSEGLDTLSGQPGGGGRDGGGLAPPPGSCSPSLSPSSNRSSPATHSP | 2.4 | 0.8 | 0.82 | 22.0 | 1.4 | 1.39 | 1.22 | 46.3 | 1.2 | 4.2 | 0.9 | 0.94 | 86.6 | 1.3 | 1.26 | 232.0 | 2.1 | 2.11
RVRb: Rev-Erb β (NR1D2, alternative name RVR), cDNA driver (protein, UniProt Q14995 1-579, looked up) Nuclear receptor subfamily 1 …: MEVNAGGVIAYISSSSSASSPASCHSEGSENSFQSSSSSVPSSPNSSNSDTNGNPKNGDLANIEGILKNDRIDCSMKTSKSSAPGMTKSHSGVTKFSGMVLLCKVCGDVASGFHYGVHACEGCKGFFRRSIQQNIQYKKCLKNENCSIMRMNRNRCQQCRFKKCLSVGMSRDAVRFGRIPKREKQRMLIEMQSAMKTMMNSQFSGHLQNDTLVEHHEQTALPAQEQLRPKPQLEQENIKSSSPPSSDFAKEEVIGMVTRAHKDTFMYNQEQQENSAESMQPQRGERIPKNMEQYNLNHDHCGNGLSSHFPCSESQQHLNGQFKGRNIMHYPNGHAICIANGHCMNFSNAYTQRVCDRVPIDGFSQNENKNSYLCNTGGRMHLVCPMSKSPYVDPHKSGHEIWEEFSMSFTPAVKEVVEFAKRIPGFRDLSQHDQVNLLKAGTFEVLMVRFASLFDAKERTVTFLSGKKYSVDDLHSMGAGDLLNSMFEFSEKLNALQLSDEEMSLFTAVVLVSADRSGIENVNSVEALQETLIRALRTLIMKNHPNEASIFTKLLLKLPDLRSLNNMHSEELLAFKVHP | 4.4 | 1.5 | 1.50 | 19.5 | 1.2 | 1.22 | 0.91 | 34.5 | 0.9 | 4.5 | 1.0 | 1.01 | 55.5 | 0.8 | 0.81 | 174.4 | 1.6 | 1.59
RVRa: Rev-Erb α (NR1D1), cDNA driver (protein, UniProt P20393 1-614, looked up) Nuclear receptor subfamily 1 …: MTTLDSNNNTGGVITYIGSSGSSPSRTSPESLYSDNSNGSFQSLTQGCPTYFPPSPTGSLTQDPARSFGSIPPSLSDDGSPSSSSSSSSSSSSFYNGSPPGSLQVAMEDSSRVSPSKSTSNITKLNGMVLLCKVCGDVASGFHYGVHACEGCKGFFRRSIQQNIQYKRCLKNENCSIVRINRNRCQQCRFKKCLSVGMSRDAVRFGRIPKREKQRMLAEMQSAMNLANNQLSSQCPLETSPTQHPTPGPMGPSPPPAPVPSPLVGFSQFPQQLTPPRSPSPEPTVEDVISQVARAHREIFTYAHDKLGSSPGNFNANHASGSPPATTPHRWENQGCPPAPNDNNTLAAQRHNEALNGLRQAPSSYPPTWPPGPAHHSCHQSNSNGHRLCPTHVYAAPEGKAPANSPRQGNSKNVLLACPMNMYPHGRSGRTVQEIWEDFSMSFTPAVREVVEFAKHIPGFRDLSQHDQVTLLKAGTFEVLMVRFASLFNVKDQTVMFLSRTTYSLQELGAMGMGDLLSAMFDFSEKLNSLALTEEELGLFTAVVLVSADRSGMENSASVEQLQETLLRALRALVLKNRPLETSRFTKLLLKLPDLRTLNNMHSEKLLSFRVDAQ | 2.5 | 0.9 | 0.86 | 17.9 | 1.1 | 1.13 | 0.89 | 34.0 | 0.9 | 2.2 | 0.5 | 0.50 | 45.9 | 0.7 | 0.67 | 143.0 | 1.3 | 1.30

Source: patent US20110263454A1, “Methods of Identifying Functional Characteristics of Promoters, Transcription Modifying Proteins and Transcription Modulating Agents” (Salk Institute for Biological Studies, priority 2008, published 2011)
